Article PMC5667550 (SLAS discovery : advancing life sciences R & D, 2017)
Ends that are not written are not given here. * marks the point of attachment. Biotin = O=C1N[C@H]2[C@H](CS[C@H]2CCCCC(=O)*)N1

Target: Klebsiella pneumonia PriA protein fused to an N-terminal 6xHis purification tag (Klebsiella pneumonia, UniProt A6TGC5 1-731)
Assay: AlphaScreen or HTRF

Chain of Klebsiella pneumonia PriA protein fused to an N-terminal 6xHis purification tag (A6TGC5 whole entry, the tested form may be a part): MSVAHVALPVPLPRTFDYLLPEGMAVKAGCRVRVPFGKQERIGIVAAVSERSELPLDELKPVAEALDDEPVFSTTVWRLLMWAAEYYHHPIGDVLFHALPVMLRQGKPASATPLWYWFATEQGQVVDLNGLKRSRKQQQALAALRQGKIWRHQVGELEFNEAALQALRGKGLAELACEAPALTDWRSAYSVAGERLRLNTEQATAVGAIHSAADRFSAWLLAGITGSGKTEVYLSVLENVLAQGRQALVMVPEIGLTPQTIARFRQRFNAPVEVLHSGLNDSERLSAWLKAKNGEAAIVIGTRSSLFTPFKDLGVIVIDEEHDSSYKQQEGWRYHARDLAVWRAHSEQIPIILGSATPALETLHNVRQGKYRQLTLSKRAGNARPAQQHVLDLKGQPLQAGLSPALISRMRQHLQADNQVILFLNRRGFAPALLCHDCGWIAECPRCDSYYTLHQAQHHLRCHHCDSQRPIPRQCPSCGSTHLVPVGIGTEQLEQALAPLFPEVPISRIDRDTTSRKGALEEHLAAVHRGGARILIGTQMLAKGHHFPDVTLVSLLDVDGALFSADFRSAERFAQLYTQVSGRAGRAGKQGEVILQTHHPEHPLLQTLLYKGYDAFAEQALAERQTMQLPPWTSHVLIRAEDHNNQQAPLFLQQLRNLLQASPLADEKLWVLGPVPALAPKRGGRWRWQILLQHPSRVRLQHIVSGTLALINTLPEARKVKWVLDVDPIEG

B1: N-terminally biotinylated SSBct (peptide)
peptide: Biotin-WMDFDDDIPF
binding result: binds
